Test results taken from US20240270826A1 (NATIONAL RESEARCH COUNCIL OF CANADA, published 2024).

B1: NRCoV2-MRed18 VHH (VHH)
VHH: EVQLVESGGGLVQPGGSLRLSCAASTTVFGRNAMGWYRQAPGKERELVATVSDGGTPNYADSVKGRFTISRDNAKNTIYLQMNSLEPEDTAVYYCNYYNYYYGRNFWGQGTQVTVSS
B2: NRCoV2-S2F3 VHH (VHH)
VHH: EVQLVQSGGGLVQAGGSLRLSCATSVRILSVPAMGWYRQAPGKEREMVAVITSGGSTNYADSVKGRFTISRDNAKNTVYLQMNSLKLEDTAVYQCNLRDILSQPFWGQGTQVTVSS
B3: NRCoV2-SR04 VHH (VHH)
VHH: QVQLVESGGGLVQAGGSLRLSCAASGRTFSSHTVGWYRQAPGKQRDLVAAISMGGNTNYADYADSVKGRFTISRDNAKNTLYLQMNSLKPEDTAVYYCNTAALVGNRLLPMATITWGQGTQVTVSS
B4: NRCoV2-MRed11 VHH (VHH)
VHH: EVQLVESGGGLVQAGGSLRLSCAASGFTFSSYAMSWHRQAPGKGLEWVSAINSGGGSTSYADSVKGRFAISRDNAKNTLYLQMNSLKPEDTAVYYCATTISDGSSWSTKSYRGQGTQVTVSS
B5: NRCoV2-MRed06 VHH (VHH)
VHH: EVQLVESGGGLVQAGGSLRLSCAASGFTLAYYAIGWFRQAPGKEREGVSCISSSDGSAHYADSVKGRFTISRDNAKNTVSLQMNSLKPEDTAVYYCATDSFSSCSDYESGMDFWGKGTQVTVSS
B6: NRCoV2-MRed03 VHH (VHH)
VHH: EVQLVESGGGLVQPGGSLRLSCAAIGFTLDYYAIGWFRQAPGKEREGVSCISSSDGSTYYADSVKGRFTISRDNAKNTVYLQMNSLKPEDTAVYYCATDAFATCDSWYAQIAQYDFRGQGTQVTVSS
B7: NRCoV2-SR16 VHH (VHH)
VHH: QVQLVQSAGGLVQAGGSLRLSCVVSGTTFSRYHMGWHRQAPGKQRDFVAGISTSGAVTYADSAKGRFTISRDNAKNTVYLEMNSLKLEDTALYYCNTGGWDYRSSTFIMGLNWGQGTQVTVSS
B8: NRCoV2-MRed25 VHH (VHH)
VHH: EVQLVESGGGLVQAGGSLRLSCAASGHTFSRYGMGWFRQAPGKEREFVAAISWRGDSTYYRDSVNGRFTISRDNAKNTVYLGMNSLKPEDTAVYYCAAEMWGTATIVASRYTYWGQGTQVTVSS
B9: NRCoV2-MRed07 VHH (VHH)
VHH: EVQLVESGGGLVQPGGSLTLSCAASGSIGPFNTMGWYRQAPGNQREPAAIITRGGVTNYADSVKGRFTISRDNAKNAVYLQMDSLKPDDTAVYYCYANYGWAIPYWGNGTQVTVSS
B10: NRCoV2-S2G3 VHH (VHH)
VHH: QVQLVQSGGGSVQAGGSLRLSCAASGSTFGIFLMGWRRQAPGKQRELVAHITSGGATNYADSVKGRFTISRDNAKNTVYLQMNSLEPEDTAVYYCYTTKRDDASVYWGQGTQVTVSS
B11: NRCoV2-S2G4 VHH (VHH)
VHH: QVQLVQSGGGLVQAGGSLTLSCAPSGSTFSGYATNWYRQAPGKQRELVATISSDGDKNYADSVKGRFTISRDNAKNTVYLQMNSLKPEDTAVYYCNKHWWTGDWWGQGTQVTVSS
B12: NRCoV2-MRed19 VHH (VHH)
VHH: EVQLVESGGGLVQPGGSLRLSCAASTIIFKGQTMGWFRQAPGNERELVATMTTSGSANYADSVKGRFTISRDNEKTVTLQMNSLKPEDTALYYCYMHSVYYGIDYWGKGTQVTVSS
B13: NRCoV2-MRed22 VHH (VHH)
VHH: EVQLVESGGGLVQPGGSLRLSCAASGSVFASNAMGWYRQAPGKQRELVATISSRGSTNYADSVKGRFTISRDNAKNTVYLQMNSLGPEDTAVYYCNAREFTGFDYWGQGTQVTVSS
B14: NRCoV2-S2A4 VHH (VHH)
VHH: QVQLVQSGGGLVQAGGSLRLSCAVSGSPFRSNVMEWYRQAPGKQRELVASISTGGSRTYTDSVKGRFTISRDNAKNEAFLQMNSLKPEDTAVYYCHAAARDSHGIYLLDTWGQGTQVTVSS
B15: NRCoV2-MRed20 VHH (VHH)
VHH: EVQLVESGGGSVQAGGSLRLSCAASGLSFSSYDMGWFRQAPGKEREFVAAIRESGSGTYYADSVKGRFTISRDNAKNTVYLQVSSLKPEDTAVYTCAAKPPFYGSGTYSTPRAYLYWGQGTQVTVSS
B16: NRCoV2-SR03 VHH (VHH)
VHH: AVQLVDSGGGLVQAGGSLRLSCAASGSIFSNNHMGWYRQAPGKQRELVAAISSGGKTNYADFAKGRFTISRDNAKNMVYLQMNSLKPEDTAVYYCNRGGWEYRSSYYIMGPHWGQGTQVTVSS
B17: NRCoV2-20 VHH (VHH)
VHH: EVQLQQSGGGLVQPGGSLRLSCAASGRTFSNYVVGWFRQAPQAPGKDHEFVAVISGSDTETYYADSVKGRFTISRDNAKNTVYLQMNSLKPEDTAVYYCAADRGMSYYYTRATEYYYWGQGTQVTVSS

biological target: T1, Human SARS-CoV-2_Wuhan S (SmT1) (SARS-CoV-2 (Wuhan), UniProt P0DTC2 14-1208); experiment: SPR, VHH over immobilised S

Binder | Kd [nM] | koff [s⁻¹] | kon [M⁻¹ s⁻¹]
B1 | 6.03 | 0.00119 | 197000
B2 | 3.03 | 0.000473 | 156000
B3 | 0.14 | 0.000515 | 3.68e+06
B4 | 6.2 | 0.000283 | 45700
B5 | 5.19 | 0.000996 | 192000
B6 | 0.508 | 0.000121 | 237000
B7 | 1.96 | 0.000957 | 488000
B8 | 1.02 | 0.000115 | 112000
B9 | 0.105 | 0.000481 | 4.58e+06
B10 | 1.87 | 0.000606 | 324000
B11 | 0.232 | 0.000207 | 893000
B12 | 9.07 | 0.00118 | 131000
B13 | 0.506 | 0.000176 | 347000
B14 | 12.8 | 0.000446 | 34900
B15 | 0.0918 | 1.46e-05 | 160000
B16 | 1.69 | 0.00113 | 670000

biological target: SARS-CoV spike (S) (SARS-CoV, UniProt P59594 14-1195); experiment: SPR, VHH over immobilised S

Binder | Kd [nM] | koff [s⁻¹] | kon [M⁻¹ s⁻¹] | binding result
B1 | 22.5 | 0.00677 | 300000 | 
B2 | 4.91 | 0.00139 | 282000 | 
B3 |  |  |  | no binding
B4 |  |  |  | no binding
B5 |  |  |  | no binding
B6 |  |  |  | no binding
B7 |  |  |  | no binding
B8 | 2.29 | 5.01e-05 | 21800 | 
B9 |  |  |  | no binding
B10 | 4.27 | 0.0008 | 187000 | 
B11 | 0.799 | 0.000735 | 920000 | 
B12 | 24.6 | 0.00614 | 249000 | 
B13 |  |  |  | no binding
B14 |  |  |  | no binding
B15 | 10.7 | 0.00406 | 380000 | 
B16 |  |  |  | no binding

biological target: Human SARS-CoV-2_Wuhan S (SmT1) (SARS-CoV-2 (Wuhan), UniProt P0DTC2 14-1208); experiment: flow cytometry SVNA, VHH vs biotin-S binding to Vero E6 ACE2

Binder | IC50 [nM] | IC99 [nM] | Imax % [%]
B17 | 5.1 | 1370 | 43

biological target: T1, Human SARS-CoV-2_Wuhan S (SmT1); experiment: SPR, VHH over immobilised S; remark: another data set of the same source

Binder | Kd [nM]
B1 | 6.03
B2 | 3.03
B3 | 0.14
B4 | 6.2
B5 | 5.2
B6 | 0.51
B7 | 2
B8 | 1.02
B9 | 0.11
B10 | 1.87
B11 | 0.23
B12 | 9.07
B13 | 0.51
B14 | 12.8
B15 | 0.092
B16 | 1.69
